# In the supplement of paper PMC9112550, “Optimization of the antimicrobial peptide Bac7 by deep mutational scanning” (BMC Biology, 2022):
# Test system: Escherichia coli TOP10
# Test: shrunken log2 fold change of peptide-encoding DNA abundance (4.5 h post-induction vs induction); higher = less antimicrobial activity (less host growth inhibition)
# Conditions: time post-induction: 4.5 h; library: site-saturation at positions 5, 18, 19, 20
# 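Note: peptides expressed intracellularly from a pBAD plasmid library in pooled LB shake-flask culture, induced with 0.3% L-arabinose, DNA abundance read by NGS, three biological replicates, DESeq2 with apeglm shrinkage.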
row,Sequence,shrunken log2 fold change
1,RRIRFRPPRLPRPRPRPKVSPRP,0.00612
2,RRIRFRPPRLPRPRPRPKWFPRP,0.045
3,RRIRFRPPRLPRPRPRPKWWPRP,-0.0582
4,RRIRFRPPRLPRPRPRPKYSPRP,-0.14
5,RRIRFRPPRLPRPRPRPLASPRP,-0.0784
6,RRIRFRPPRLPRPRPRPLATPRP,-0.00506
7,RRIRFRPPRLPRPRPRPLCVPRP,-0.394
8,RRIRFRPPRLPRPRPRPLDSPRP,-0.0455
9,RRIRFRPPRLPRPRPRPLFHPRP,-0.632
10,RRIRFRPPRLPRPRPRPLGFPRP,-0.146
11,RRIRFRPPRLPRPRPRPLGTPRP,0.0158
12,RRIRFRPPRLPRPRPRPLGVPRP,0.0349
13,RRIRFRPPRLPRPRPRPLICPRP,-0.286
14,RRIRFRPPRLPRPRPRPLKNPRP,-0.193
15,RRIRFRPPRLPRPRPRPLKWPRP,-0.13
16,RRIRFRPPRLPRPRPRPLLHPRP,-0.247
17,RRIRFRPPRLPRPRPRPLLKPRP,-0.321
18,RRIRFRPPRLPRPRPRPLMDPRP,-0.0516
19,RRIRFRPPRLPRPRPRPLMIPRP,-0.266
20,RRIRFRPPRLPRPRPRPLMYPRP,-0.323
21,RRIRFRPPRLPRPRPRPLNSPRP,-0.377
22,RRIRFRPPRLPRPRPRPLQCPRP,-0.293
23,RRIRFRPPRLPRPRPRPLQWPRP,-0.0201
24,RRIRFRPPRLPRPRPRPLRAPRP,0.821
25,RRIRFRPPRLPRPRPRPLSMPRP,-0.363

row,Sequence,shrunken log2 fold change
1,RRIRFRPPRLPRPRPRPLTAPRP,-0.0807
2,RRIRFRPPRLPRPRPRPLVIPRP,-0.78
3,RRIRFRPPRLPRPRPRPLWAPRP,-0.151
4,RRIRFRPPRLPRPRPRPMAPPRP,0.114
5,RRIRFRPPRLPRPRPRPMCMPRP,-0.153
6,RRIRFRPPRLPRPRPRPMDAPRP,0.111
7,RRIRFRPPRLPRPRPRPMDFPRP,-0.00674
8,RRIRFRPPRLPRPRPRPMDLPRP,-0.161
9,RRIRFRPPRLPRPRPRPMFGPRP,0.312
10,RRIRFRPPRLPRPRPRPMFMPRP,-0.14
11,RRIRFRPPRLPRPRPRPMFNPRP,-0.797
12,RRIRFRPPRLPRPRPRPMHCPRP,-0.253
13,RRIRFRPPRLPRPRPRPMHPPRP,-0.082
14,RRIRFRPPRLPRPRPRPMIAPRP,-0.195
15,RRIRFRPPRLPRPRPRPMIHPRP,-0.0677
16,RRIRFRPPRLPRPRPRPMITPRP,-0.33
17,RRIRFRPPRLPRPRPRPMIVPRP,-0.105
18,RRIRFRPPRLPRPRPRPMKFPRP,-0.681
19,RRIRFRPPRLPRPRPRPMKIPRP,0.25
20,RRIRFRPPRLPRPRPRPMKRPRP,0.347
21,RRIRFRPPRLPRPRPRPMKVPRP,-0.344
22,RRIRFRPPRLPRPRPRPMKWPRP,-0.0607
23,RRIRFRPPRLPRPRPRPMMAPRP,0.189
24,RRIRFRPPRLPRPRPRPMMWPRP,-0.011
25,RRIRFRPPRLPRPRPRPMPPPRP,0.55

row,Sequence,shrunken log2 fold change
1,RRIRFRPPRLPRPRPRPMPYPRP,-0.218
2,RRIRFRPPRLPRPRPRPMQEPRP,0.0233
3,RRIRFRPPRLPRPRPRPMQPPRP,0.287
4,RRIRFRPPRLPRPRPRPMRRPRP,0.542
5,RRIRFRPPRLPRPRPRPMRWPRP,0.264
6,RRIRFRPPRLPRPRPRPMVAPRP,0.297
7,RRIRFRPPRLPRPRPRPMVEPRP,-0.0547
8,RRIRFRPPRLPRPRPRPMVNPRP,-0.171
9,RRIRFRPPRLPRPRPRPMYAPRP,-0.406
10,RRIRFRPPRLPRPRPRPMYQPRP,-0.167
11,RRIRFRPPRLPRPRPRPNCHPRP,-0.313
12,RRIRFRPPRLPRPRPRPNCMPRP,-0.143
13,RRIRFRPPRLPRPRPRPNCWPRP,-0.358
14,RRIRFRPPRLPRPRPRPNDDPRP,-0.755
15,RRIRFRPPRLPRPRPRPNEGPRP,-0.0411
16,RRIRFRPPRLPRPRPRPNERPRP,0.047
17,RRIRFRPPRLPRPRPRPNETPRP,-0.0424
18,RRIRFRPPRLPRPRPRPNGLPRP,-0.0551
19,RRIRFRPPRLPRPRPRPNGYPRP,-0.3
20,RRIRFRPPRLPRPRPRPNHMPRP,-0.567
21,RRIRFRPPRLPRPRPRPNHPPRP,-0.84
22,RRIRFRPPRLPRPRPRPNHTPRP,-0.626
23,RRIRFRPPRLPRPRPRPNIDPRP,-0.463
24,RRIRFRPPRLPRPRPRPNIIPRP,-0.706
25,RRIRFRPPRLPRPRPRPNKRPRP,-0.274
